The values that follow are results of earlier work, collected in publication PMC3204931.

This series addresses Rac2 (Homo sapiens) (UniProt P15153).

With PLD2 (from UniProt O14939), the dissociation constant (Kd) is 10 nM.

Broadly, the Kd is the concentration at which binding is half-saturated.
